Some results are limits rather than exact numbers.

Assay [1] has as its target T1, human FGFR3b expressed with a C-terminal myc-myc-hexahistidine tag (hFGFR3b.mmH) (human).
T1 construct: also called REGN3152; monomeric human FGFR3b
T1 chain: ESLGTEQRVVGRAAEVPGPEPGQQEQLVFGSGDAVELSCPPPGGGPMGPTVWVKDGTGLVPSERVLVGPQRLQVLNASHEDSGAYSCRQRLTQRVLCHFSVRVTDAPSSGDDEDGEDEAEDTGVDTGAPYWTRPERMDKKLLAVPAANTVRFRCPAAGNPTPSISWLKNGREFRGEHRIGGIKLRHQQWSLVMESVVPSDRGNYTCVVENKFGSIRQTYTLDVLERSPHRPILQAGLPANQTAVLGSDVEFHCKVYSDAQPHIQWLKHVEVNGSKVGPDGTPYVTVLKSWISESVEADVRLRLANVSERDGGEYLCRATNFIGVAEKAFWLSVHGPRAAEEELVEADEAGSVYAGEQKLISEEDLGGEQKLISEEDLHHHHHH
The experiment in a line: SPR Biacore, mAb captured on anti-hFc, 25C. Here is the method:
(§1) The CM5 Biacore sensor surface was derivatized by amine coupling with a monoclonal mouse anti-human Fc monoclonal antibody (REGN2567). […] Antibody-reagent association was monitored for 5 minutes while dissociation in HBS-EP running buffer was monitored for 10 minutes. At the end of each cycle, the anti-FGFR3 antibody capture surface was regenerated using a 10 sec injection of 20 mM phosphoric acid. All binding kinetics experiments were performed at 25° C.
(§2) The specific SPR-Biacore sensorgrams were obtained by a double referencing procedure. The double referencing was performed by first subtracting the signal of each injection over a reference surface (anti-hFc) from the signal over the experimental surface (anti-hFc-captured anti-FGFR3 antibodies) thereby removing contributions from refractive index changes. In addition, running buffer injections were performed to allow subtraction of the signal changes resulting from the dissociation of captured antibodies from the coupled anti-hFc surface. Kinetic association (kₐ) and dissociation (kd) rate constants were determined by fitting the real-time sensorgrams to a 1:1 binding model using Scrubber v2.0c curve fitting software.
A general note: SPR reads the build-up and loss of mass on a sensor chip optically.

Assay [2] concerns the target T2, cynomolgus FGFR3b expressed with a C-terminal myc-myc-hexahistidine tag (mfFGFR3b.mmH) (cynomolgus).
T2 construct: also called REGN3521; mf FGFR3b ecto (R357G)(E23-G377;R357G).mmH
T2 chain: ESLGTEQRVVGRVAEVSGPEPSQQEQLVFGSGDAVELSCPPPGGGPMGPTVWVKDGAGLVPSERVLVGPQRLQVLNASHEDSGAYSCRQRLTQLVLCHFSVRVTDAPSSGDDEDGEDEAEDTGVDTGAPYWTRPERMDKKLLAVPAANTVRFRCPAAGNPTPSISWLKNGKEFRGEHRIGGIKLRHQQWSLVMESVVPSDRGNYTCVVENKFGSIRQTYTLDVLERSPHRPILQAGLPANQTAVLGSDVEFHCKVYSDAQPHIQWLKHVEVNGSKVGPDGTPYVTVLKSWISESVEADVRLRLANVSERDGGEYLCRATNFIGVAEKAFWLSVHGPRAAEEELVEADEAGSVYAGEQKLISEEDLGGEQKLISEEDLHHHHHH
The experiment in a line: SPR Biacore, mAb captured on anti-hFc, 25C. On the procedure: as §1, §2

Assay [3] addresses T3, human FGFR3c expressed with a C-terminal myc-myc-hexahistidine tag (hFGFR3c.mmH) (human, UniProt P22607 23-375).
T3 construct: also called REGN3155; monomeric human FGFR3c
The experiment in a line: SPR Biacore, mAb captured on anti-hFc, 25C. On the procedure: as §1, §2

Assay [4] addresses T4, human FGFR3b expressed with a C-terminal murine Fc tag (hFGFR3b.mFc) (human).
T4 construct: called dimeric; also called REGN3153; dimeric human FGFR3b
T4 chain: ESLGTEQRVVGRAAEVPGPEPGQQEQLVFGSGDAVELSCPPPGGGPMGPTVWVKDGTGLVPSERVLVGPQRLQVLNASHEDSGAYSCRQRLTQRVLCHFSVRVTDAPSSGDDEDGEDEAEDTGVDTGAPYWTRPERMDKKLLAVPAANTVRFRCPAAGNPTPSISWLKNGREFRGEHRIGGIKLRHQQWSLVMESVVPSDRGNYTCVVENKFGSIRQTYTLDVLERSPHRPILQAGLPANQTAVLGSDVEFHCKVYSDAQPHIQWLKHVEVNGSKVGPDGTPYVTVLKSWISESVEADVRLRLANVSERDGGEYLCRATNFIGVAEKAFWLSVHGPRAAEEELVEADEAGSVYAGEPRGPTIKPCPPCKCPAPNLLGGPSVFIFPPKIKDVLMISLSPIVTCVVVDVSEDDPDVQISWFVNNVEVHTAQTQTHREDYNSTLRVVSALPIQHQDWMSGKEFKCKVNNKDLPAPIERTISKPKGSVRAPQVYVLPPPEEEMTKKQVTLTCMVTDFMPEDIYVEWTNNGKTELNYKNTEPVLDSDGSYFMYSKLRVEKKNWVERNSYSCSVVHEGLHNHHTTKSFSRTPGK
Description: SPR Biacore, mAb captured on anti-hFc, 25C. On the procedure: as §1, §2

Assay [5] has as its target T5, murine FGFR3b expressed with a C-terminal myc-myc-hexahistidine tag (mFGFR3b.mmH) (murine).
T5 construct: also called REGN3215; monomeric murine FGFR3b
T5 chain: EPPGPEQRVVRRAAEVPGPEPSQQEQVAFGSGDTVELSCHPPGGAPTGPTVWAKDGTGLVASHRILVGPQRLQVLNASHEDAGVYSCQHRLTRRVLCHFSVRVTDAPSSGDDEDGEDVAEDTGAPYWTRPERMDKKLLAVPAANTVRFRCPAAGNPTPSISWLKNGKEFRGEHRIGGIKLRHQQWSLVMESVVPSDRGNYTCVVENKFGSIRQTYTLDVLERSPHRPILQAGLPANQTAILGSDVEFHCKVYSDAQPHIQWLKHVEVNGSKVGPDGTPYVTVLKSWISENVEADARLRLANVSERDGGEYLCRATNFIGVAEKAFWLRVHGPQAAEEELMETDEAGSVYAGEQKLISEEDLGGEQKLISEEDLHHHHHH
The experiment in a line: SPR Biacore, mAb captured on anti-hFc, 25C. Here is the method: as §1, §2

Assay [6] concerns the target T4, human FGFR3b expressed with a …. The experiment in a line: competition ELISA: 4 nM hFGFR3b-mFc binding to plate-coated hFGF acidic. On the procedure:
The fixed concentration of hFGFR3b or hFGFR3c proteins was selected to be near the concentration that generated 50% of the maximal binding (EC₅₀ value) to plate-adhered hFGF acidic or hFGF basic protein. […] The plates were then developed using TMB substrate solution (BD Biosciences) according to the manufacturer's recommended procedure and absorbance at 450 nm was measured on a Victor X5 plate reader.
Binding data were analyzed using a sigmoidal (four-parameter logistic) dose-response model using GraphPad Prism software. […] Percent blocking of FGFR3 antibody at a given concentration was calculated based on the formula shown below.
The ability of anti-FGFR3 antibodies to block human FGFR3b binding to hFGF acidic protein or hFGFR3c binding to hFGF acidic or hFGF basic proteins was evaluated using a sandwich ELISA-based blocking assay.
For orientation: An ELISA detects its analyte on a solid surface through an enzyme-linked reagent.

Assay [7] addresses T3, human FGFR3c expressed with a …. Description: SPR Biacore, mAb captured on anti-hFc, 25C; row marked NB. On the procedure: as §1, §2

B1: H4H30095P2 (antibody, human IgG4 S228P, kappa, V domains shown)
VH: QVQLVQSGVEVKKPGASVKVSCKASGYTFKFYGISWVRQAPGQGLEWMGWISVYNGKTKYAQKLQGRVTMTTDTSTSTAYMELRSLRSDDTAVYFCARDGDYESSGYPFDYWGQGTLVTVSS
VL: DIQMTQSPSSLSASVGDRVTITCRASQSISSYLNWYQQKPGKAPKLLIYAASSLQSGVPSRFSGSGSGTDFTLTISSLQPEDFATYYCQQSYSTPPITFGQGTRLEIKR
B1: in assay [1], the “90 nM hFGFR3b.mmH Bind (RU)” value was determined as 239 RU; the Kd (commonly the concentration at which binding is half-saturated) is 7.16 nM; the koff (commonly a measure of how fast the partners let go of each other) came out at 0.005 s⁻¹; the kon (as a rule, a measure of how fast the partners come together) is 698000 M⁻¹ s⁻¹. For the same molecule, in assay [1], the t½ (as a rule, how long it takes for the measured level to halve) amounted to 2.3 min. Further, in assay [2], the “90 nM mfFGFR3b.mmH Bind (RU)” value turned out to be 206 RU, binding was put at a Kd of 8.29 nM, the off-rate (koff) amounted to 0.00437 s⁻¹ and the on-rate constant (kon) worked out at 527000 M⁻¹ s⁻¹. In assay [2], the “t½” value came out at 2.6 min. In addition, in assay [3], the “90 nM hFGFR3c.mmH Bind (RU)” value is 222 RU, binding was put at a Kd of 7.88 nM, the off-rate constant (koff) is 0.00454 s⁻¹ and the kon was 575000 M⁻¹ s⁻¹. In assay [3], the “t½” value stood at 2.5 min. Further, in assay [4], the “30 nM hFGFR3b.mFc Bind (RU)” value was found to be 405 RU, the Kd was 0.114 nM, the koff is 9.88e-05 s⁻¹ and the association rate constant (kon) is 867000 M⁻¹ s⁻¹. The “t½” value in assay [4] amounted to 117 min.

B2: H4H30105P2 (antibody, human IgG4 S228P, kappa, V domains shown)
VH: EVQLVQSGAEVKKPGESLKISCKGSGYSFTSYWIAWVRQMPGKGLEWMGIIYPGDSDTRYSPSFQGQVTMSADKSIRIAYLQWSSLKASDTAMYYCARLDYSGSWFDYWGQGTLVTVSS
VL: not shown
Take B2: in assay [1], the “90 nM hFGFR3b.mmH Bind (RU)” value came to 158 RU, the koff came to 0.00511 s⁻¹, the on-rate (kon) was 438000 M⁻¹ s⁻¹ and the “t½” value was 2.3 min. In assay [2], the “90 nM mfFGFR3b.mmH Bind (RU)” value was determined as 67.8 RU, the equilibrium dissociation constant (Kd) is 14.7 nM, the koff worked out at 0.00802 s⁻¹ and the on-rate constant (kon) is 547000 M⁻¹ s⁻¹. In addition, the “t½” value in assay [2] was determined as 1.4 min. For the same molecule, in assay [5], the “90 nM mFGFR3b.mmH Bind (RU)” value was found to be 8.3 RU, the koff was 0.00122 s⁻¹, the kon was 149000 M⁻¹ s⁻¹ and the “t½” value is 9.5 min. Besides, in assay [3], the “90 nM hFGFR3c.mmH Bind (RU)” value worked out at 131 RU, the koff worked out at 0.00652 s⁻¹, the association rate constant (kon) came to 387000 M⁻¹ s⁻¹ and the “t½” value came out at 1.8 min.

B3: H4H30093P2 (antibody, human IgG4 S228P, kappa, V domains shown)
VH: QVQLVESGGGLVKPGGSLRLSCAASGFTFNDYPMSWIRQAPGKGLEWVSYITSSSGSTIYYADSVKGRFTISRDNAKNSLYLQMNSLRAEDTAVYYCAREVVVATIGGYYGMDVWGQGTTVTVSS
VL: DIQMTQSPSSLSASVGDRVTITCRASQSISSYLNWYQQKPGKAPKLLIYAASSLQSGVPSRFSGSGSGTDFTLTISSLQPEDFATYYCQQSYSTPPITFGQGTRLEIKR
notes: HCVR 82, LCVR 90
For B3, in assay [1], the “90 nM hFGFR3b.mmH Bind (RU)” value amounted to 217 RU, binding was characterised by a dissociation constant (Kd) of 5.14 nM, the dissociation rate constant (koff) amounted to 0.00209 s⁻¹ and the kon worked out at 406000 M⁻¹ s⁻¹. Besides, the “t½” value in assay [1] worked out at 5.5 min. The binding result in assay [2] is reported as “no binding (tested: 90 nM)”. Further, in assay [5], the “90 nM mFGFR3b.mmH Bind (RU)” value was 11.2 RU, the Kd was determined as 70.9 nM, the off-rate constant (koff) is 0.00967 s⁻¹ and the on-rate (kon) is 136000 M⁻¹ s⁻¹. In assay [5], the “t½” value was 1.2 min. In assay [3], the “90 nM hFGFR3c.mmH Bind (RU)” value stood at 182 RU, the dissociation constant Kd turned out to be 9.2 nM, the dissociation rate constant (koff) amounted to 0.00334 s⁻¹ and the on-rate (kon) was determined as 363000 M⁻¹ s⁻¹. The “t½” value in assay [3] stood at 3.5 min. In addition, in assay [4], the “30 nM hFGFR3b.mFc Bind (RU)” value worked out at 317 RU; the affinity, expressed as Kd, was 0.0265 nM; the koff amounted to 1.55e-05 s⁻¹; the kon is 585000 M⁻¹ s⁻¹. In addition, the “t½” value in assay [4] came to 745 min. Further, in assay [6], the “% Blocking at 200 nM mAb” value was found to be 91% and the IC50 (usually the concentration that inhibits the measured activity by half) was determined as 2.5 nM.

B4: H4H30076P (antibody, human IgG4 S228P, kappa, V domains shown)
VH: EVQLVESGGGLVQPGGSLRLSCAASGFTVSSNYMSWVRQAPGKGLEWVSIIYSGGHTYYSDSVKGRFTISRHNSKNTLYLQMNSLRGGDTAVYYCARGYTSGWYGFDFWGQGTLVTVSS
VL: DIQMTQSPSSVSASVGDRVTITCRASQGISTWLAWYQQKPGKAPKLLIYAASSLQSGVPSRFSGTGSGTDFTLTISSLQPEDFATYYCQQTNSFPWTFGQGTKVEIKR
B4: in assay [1], the “90 nM hFGFR3b.mmH Bind (RU)” value stood at 198 RU, binding was characterised by a dissociation constant (Kd) of 0.186 nM, the koff worked out at 4.39e-05 s⁻¹ and the association rate constant (kon) was determined as 236000 M⁻¹ s⁻¹. Moreover, the “t½” value in assay [1] came to 263 min. Besides, in assay [2], the “90 nM mfFGFR3b.mmH Bind (RU)” value came out at 180 RU, the Kd was 0.165 nM, the koff is 3.3e-05 s⁻¹ and the association rate constant (kon) was 200000 M⁻¹ s⁻¹. For the same molecule, in assay [2], the “t½” value was determined as 350 min. Further, in assay [5], the “90 nM mFGFR3b.mmH Bind (RU)” value was found to be 201 RU, binding was characterised by a dissociation constant (Kd) of 0.141 nM, the off-rate (koff) is 3.61e-05 s⁻¹ and the association rate constant (kon) was 256000 M⁻¹ s⁻¹. Besides, the “t½” value in assay [5] was determined as 320 min. Moreover, in assay [4], the “30 nM hFGFR3b.mFc Bind (RU)” value was determined as 204 RU, the dissociation constant (Kd) was no more than 0.0246 nM, the koff was no more than 1e-05 s⁻¹ and the kon was 407000 M⁻¹ s⁻¹. Moreover, in assay [4], the “t½” value was no less than 1160 min. Moreover, the “90 nM hFGFR3c.mmH Bind (RU)” value in assay [7] was -9.7 RU.
